The record followed here is paper PMC8070244, “The MarR-Type Regulator PA3458 Is Involved in Osmoadaptation Control in Pseudomonas aeruginosa” (International Journal of Molecular Sciences, 2021).

The data set deals with the molecule itself. Nature of the data set: SEC-MALS; 100 uL of 1 mg/ml sample on Superdex 200 Increase 10/300 in LEW buffer (50 mM NaH2PO4, 300 mM NaCl pH 8), room temperature, 0.5 mL/min. For orientation: Size exclusion chromatography separates by hydrodynamic size, large species first.

B1: PA3458-His6 (natural protein, Pseudomonas aeruginosa PAO1161, UniProt Q9HYE8 1-157, looked up)
chain: MVESNKTAADTYSLAIFRAIRRLQQAAEIHSKRLSRYGGLTPLQLLILHVLAVEGELTATQLAKLVSLSQASLSGVLDRLEGRGLLYRRRDEQDRRKSWLHLDPAGHEALAEAPPLLPEYVIERFAALPEWERHGLLAALLRAADLFGLPEEDVEEE
notes: PA3458, MarR-type transcriptional regulator of Pseudomonas aeruginosa PAO1161 (locus D3C65_07830; PAO1 ortholog PA3458), 157 residues (17.6 kDa); the gene was amplified with primers 13#/14# (forward primer begins at the ATG; 483 bp fragment) and cloned NcoI/HindIII in pET28a; it says that the gene (157 codons) was cloned as a PA3458-his6 fusion, with the forward primer starting at the ATG; Linker …
What is called stoichiometry N is a count of units in the complex or per binding partner. As for B1, the “stoichiometry N” value worked out at 4.
